Laboratory results: patent WO2005107784A1 (dated 2005)

Key:
[1] = target: human Mpl (full length, expressed on BaF3 cells) (human) (UniProt P40238); assay: cell-based or functional assay
[2] = target: T1, human Mpl (full length, expressed on BaF3 cells) (human, UniProt P40238 26-635); assay: cell-based or functional assay
T1 sequence: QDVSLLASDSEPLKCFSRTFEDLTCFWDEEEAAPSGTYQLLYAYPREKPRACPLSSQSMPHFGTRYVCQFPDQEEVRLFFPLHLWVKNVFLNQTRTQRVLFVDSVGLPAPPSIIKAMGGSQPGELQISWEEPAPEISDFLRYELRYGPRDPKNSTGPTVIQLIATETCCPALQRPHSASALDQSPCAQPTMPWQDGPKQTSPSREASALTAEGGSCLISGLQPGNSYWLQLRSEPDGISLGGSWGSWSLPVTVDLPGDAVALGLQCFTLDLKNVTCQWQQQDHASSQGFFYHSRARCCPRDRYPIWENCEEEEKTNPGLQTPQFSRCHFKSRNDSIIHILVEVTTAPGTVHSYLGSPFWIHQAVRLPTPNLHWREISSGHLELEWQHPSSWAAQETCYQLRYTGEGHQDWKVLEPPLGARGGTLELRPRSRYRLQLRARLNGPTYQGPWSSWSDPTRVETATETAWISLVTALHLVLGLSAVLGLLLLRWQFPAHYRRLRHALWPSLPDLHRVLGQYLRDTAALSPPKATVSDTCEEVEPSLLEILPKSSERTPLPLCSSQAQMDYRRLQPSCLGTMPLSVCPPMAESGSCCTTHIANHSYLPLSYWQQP

Molecule	BaF-human Mpl EC50 (cell proliferation, WST-8) [1]	TPO-like agonist activity, BaF-human Mpl EC50 (cell proliferation, WST-8) [2]
recombinant human TPO (rhTPO, R&D) (from UniProt P40225 22-353) (ligand)	0.076 nM	
VB22B sc(Fv)2 (scFv) scFv: QVQLQQSGPELVKPGASVKISCKASGYAFTNSWMNWVKQRPGKGLEWIGRIYPGDGETIYNGKFRVKATLTADKSSSTAYMDISSLTSEDSAVYFCARGYDDYSFAYWGQGTLVTVSAGGGGSGGGGSGGGGSDIVMTQAAPSIPVTPGESVSISCRSSKSLLHSNGNTYLYWFLQRPGQSPQLLIYRMSNLASGVPDRFSGSGSGTAFTLRISRVEAEDVGVYYCMQHIEYPFTFGSGTKLEIKGGGGSGGGGSGGGGSQVQLQQSGPELVKPGASVKISCKASGYAFTNSWMNWVKQRPGKGLEWIGRIYPGDGETIYNGKFRVKATLTADKSSSTAYMDISSLTSEDSAVYFCARGYDDYSFAYWGQGTLVTVSAGGGGSGGGGSGGGGSDIVMTQAAPSIPVTPGESVSISCRSSKSLLHSNGNTYLYWFLQRPGQSPQLLIYRMSNLASGVPDRFSGSGSGTAFTLRISRVEAEDVGVYYCMQHIEYPFTFGSGTKLEIK		0.027 nM
anti-human Mpl antibody VB22B IgG (antibody, V domains shown) VH: QVQLQQSGPELVKPGASVKISCKASGYAFTNSWMNWVKQRPGKGLEWIGRIYPGDGETIYNGKFRVKATLTADKSSSTAYMDISSLTSEDSAVYFCARGYDDYSFAYWGQGTLVTVSA VL: DIVMTQAAPSIPVTPGESVSISCRSSKSLLHSNGNTYLYWFLQRPGQSPQLLIYRMSNLASGVPDRFSGSGSGTAFTLRISRVEAEDVGVYYCMQHIEYPFTFGSGTKLEIK		> 30 nM
VB22B Diabody (scFv) scFv: QVQLQQSGPELVKPGASVKISCKASGYAFTNSWMNWVKQRPGKGLEWIGRIYPGDGETIYNGKFRVKATLTADKSSSTAYMDISSLTSEDSAVYFCARGYDDYSFAYWGQGTLVTVSAGGGGSDIVMTQAAPSIPVTPGESVSISCRSSKSLLHSNGNTYLYWFLQRPGQSPQLLIYRMSNLASGVPDRFSGSGSGTAFTLRISRVEAEDVGVYYCMQHIEYPFTFGSGTKLEIK		0.061 nM
